The assay has as its target T1, IL-17AA homodimer (human, UniProt Q16552 24-155).
T1 construct: also called IL-17A homodimer
T1 sequence: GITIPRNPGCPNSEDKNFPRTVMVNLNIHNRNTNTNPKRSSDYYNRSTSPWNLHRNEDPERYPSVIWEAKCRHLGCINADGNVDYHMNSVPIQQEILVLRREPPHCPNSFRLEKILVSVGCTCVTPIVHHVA
The assay can be described thus: ELISA, plate coated with IL-17AA; reference of the relative-potency calculation.

B1: anti-IL-17A/F antibody MCAF5352A, Reference Material (composition comprising 2% of the glycosylation variant) (antibody, human IgG1, kappa, V domains shown)
VH: EVQLVESGGGLVQPGRSLRLSCAASGFTFDDYAMHWVRQAPGKGLEWVSGINWSSGGIGYADSVKGRFTISRDNAKNSLYLQMNSLRAEDTALYYCARDIGGFGEFYWNFGLWGRGTLVTVSS
VL: not shown
notes: Produced in CHO cells; Predominantly the main species, which is not glycosylated in the variable region, with about 2% Peak 1; also called antibody standard; sample with 2% glycosylation variants
As for B1, the binding result is listed as “binds”.

The values are drawn from US20180079807A1 (Genentech, published 2018).
